Laboratory results: article PMC3806636

Target: Atg17 (Lachancea thermotolerans), crystallised construct (Lachancea thermotolerans)
Assay: SEC-MALS

**Q.** For “Atg17 (Lachancea thermotolerans), crystallised construct (natural protein)”, which stoichiometry N is on record?
**A.** 2
